The values that follow come from patent US20250262210A1 (TRUSTEES OF COLUMBIA UNIVERSITY IN THE CITY OF NEW YORK, published 2025).

In experiment [1] the target is T1, LZTR1 R810W-FLAG (human, UniProt Q8N653 1-840).
T1 construct: Stably expressed in U87 cells by lentivirus; also called LZTR1-FLAG-R810W; LZTR1 RW; not shown: FLAG tag
T1 sequence (looked up): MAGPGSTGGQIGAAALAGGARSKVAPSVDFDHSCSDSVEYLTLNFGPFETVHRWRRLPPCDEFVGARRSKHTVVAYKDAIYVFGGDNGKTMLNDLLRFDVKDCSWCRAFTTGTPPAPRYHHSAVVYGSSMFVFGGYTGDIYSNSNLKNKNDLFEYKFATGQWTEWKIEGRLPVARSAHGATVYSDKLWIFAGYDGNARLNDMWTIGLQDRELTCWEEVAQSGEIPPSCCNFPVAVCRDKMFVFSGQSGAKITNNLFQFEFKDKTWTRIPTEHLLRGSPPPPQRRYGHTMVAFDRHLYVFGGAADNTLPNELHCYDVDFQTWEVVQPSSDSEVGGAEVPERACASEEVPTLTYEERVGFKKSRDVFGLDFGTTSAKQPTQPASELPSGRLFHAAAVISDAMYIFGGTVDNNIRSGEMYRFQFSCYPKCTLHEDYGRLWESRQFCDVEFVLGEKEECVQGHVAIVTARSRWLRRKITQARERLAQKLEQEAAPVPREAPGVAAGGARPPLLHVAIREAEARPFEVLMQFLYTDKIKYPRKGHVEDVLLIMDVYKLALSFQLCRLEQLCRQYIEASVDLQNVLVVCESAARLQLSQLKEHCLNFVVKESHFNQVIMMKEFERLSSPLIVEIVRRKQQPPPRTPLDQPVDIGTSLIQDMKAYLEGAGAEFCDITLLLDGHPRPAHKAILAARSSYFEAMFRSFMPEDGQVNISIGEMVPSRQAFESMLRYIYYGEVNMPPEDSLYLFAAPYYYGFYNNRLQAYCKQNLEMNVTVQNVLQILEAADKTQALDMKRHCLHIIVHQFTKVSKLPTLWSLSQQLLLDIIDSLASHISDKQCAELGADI
The experiment can be described thus: IP/MS, LZTR1 R810W-FLAG, U87. The gist of the method: (§1)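 Extracted peptides in 3% acetonitrile/0.1% formic acid ran on a 50 cm C18 column into an Orbitrap Fusion, with MaxQuant identification and spectral counting.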

Experiment [2] has as its target T2, LZTR1-FLAG (human, UniProt Q8N653 1-840).
T2 construct: Expressed in HEK 293T, HeLa or U87 cells; used as cell lysate; also called LZTR1 wild type-FLAG; LZTR1 WT; not shown: FLAG tag at the C-terminus
T2 sequence (looked up): T1 sequence (looked up) with W810R
Nature of the experiment: IP/MS, LZTR1 wild type-FLAG, U87. The gist of the method: as §1

Changes are numbered by the printed parent chain.

B1: SHCBP1 (other, human, UniProt Q8NEM2 2-672, looked up)
chain: ADGSLTGGGLEAAAMAPERMGWAVEQELASLEKGLFQDEDSCSDCSYRDKPGSSLQSFMPEGKTFFPEIFQTNQLLFYERFRAYQDYILADCKASEVQEFTAEFLEKVLEPSGWRAVWHTNVFKVLVEITDVDFAALKAVVRLAEPYLCDSQVSTFTMECMKELLDLKEHRLPLQELWVVFDDSGVFDQTALAIEHVRFFYQNIWRSWDEEEEDEYDYFVRCVEPRLRLHYDILEDRVPSGLIVDYHNLLSQCEESYRKFLNLRSSLSNCNSDSEQENISMVEGLKLYSEMEQLKQKLKLIENPLLRYVFGYQKNSNIQAKGVRSSGQKITHVVSSTMMAGLLRSLLTDRLCQEPGEEEREIQFHSDPLSAINACFEGDTVIVCPGHYVVHGTFSIADSIELEGYGLPDDIVIEKRGKGDTFVDCTGADIKISGIKFVQHDAVEGILIVHRGKTTLENCVLQCETTGVTVRTSAEFLMKNSDLYGAKGAGIEIYPGSQCTLSDNGIHHCKEGILIKDFLDEHYDIPKISMVNNIIHNNEGYGVVLVKPTIFSDLQENAEDGTEENKALKIQTSGEPDVAERVDLEELIECATGKMELCARTDPSEQVEGNCEIVNELIAASTQKGQIKKKRLSELGITQADDNLMSQEMFVGIVGNQFKWNGKGSFGTFLF
Consider B1, for which the binding result in experiment [1] and in experiment [2] was “binds” throughout.

B2: SL C39A14 (other, human, UniProt Q15043 31-492, looked up)
chain: SSLGAPAISAASFLQDLIHRYGEGDSLTLQQLKALLNHLDVGVGRGNVTQHVQGHRNLSTCFSSGDLFTAHNFSEQSRIGSSELQEFCPTILQQLDSRACTSENQENEENEQTEEGRPSAVEVWGYGLLCVTVISLCSLLGASVVPFMKKTFYKRLLLYFIALAIGTLYSNALFQLIPEAFGFNPLEDYYVSKSAVVFGGFYLFFFTEKILKILLKQKNEHHHGHSHYASESLPSKKDQEEGVMEKLQNGDLDHMIPQHCSSELDGKAPMVDEKVIVGSLSVQDLQASQSACYWLKGVRYSDIGTLAWMITLSDGLHNFIDGLAIGASFTVSVFQGISTSVAILCEEFPHELGDFVILLNAGMSIQQALFFNFLSACCCYLGLAFGILAGSHFSANWIFALAGGMFLYISLADMFPEMNEVCQEDERKGSILIPFIIQNLGLLTGFTIMVVLTMYSGQIQIG
notes: Printed as SL C39A14; read as SLC39A14
In the case of B2, the binding result in experiment [1] and in experiment [2] was “binds” each time.

B3: SMS (other, human, UniProt P52788 2-366, looked up)
chain: AAARHSTLDFMLGAKADGETILKGLQSIFQEQGMAESVHTWQDHGYLATYTNKNGSFANLRIYPHGLVLLDLQSYDGDAQGKEEIDSILNKVEERMKELSQDSTGRVKRLPPIVRGGAIDRYWPTADGRLVEYDIDEVVYDEDSPYQNIKILHSKQFGNILILSGDVNLAESDLAYTRAIMGSGKEDYTGKDVLILGGGDGGILCEIVKLKPKMVTMVEIDQMVIDGCKKYMRKTCGDVLDNLKGDCYQVLIEDCIPVLKRYAKEGREFDYVINDLTAVPISTSPEEDSTWEFLRLILDLSMKVLKQDGKYFTQGNCVNLTEALSLYEEQLGRLYCPVEFSKEIVCVPSYLELWVFYTVWKKAKP
In the case of B3, the binding result in experiment [1] and in experiment [2] was “binds” throughout.

B4: SPRYD3 (other, human, UniProt Q8NCJ5 1-442, looked up)
chain: MRRTRRPRFVLMNKMDDLNLHYRFLNWRRRIREIREVRAFRYQERFKHILVDGDTLSYHGNSGEVGCYVASRPLTKDSNYFEVSIVDSGVRGTIAVGLVPQYYSLDHQPGWLPDSVAYHADDGKLYNGRAKGRQFGSKCNSGDRIGCGIEPVSFDVQTAQIFFTKNGKRVGSTIMPMSPDGLFPAVGMHSLGEEVRLHLNAELGREDDSVMMVDSYEDEWGRLHDVRVCGTLLEYLGKGKSIVDVGLAQARHPLSTRSHYFEVEIVDPGEKCYIALGLARKDYPKNRHPGWSRGSVAYHADDGKIFHGSGVGDPFGPRCYKGDIMGCGIMFPRDYILDSEGDSDDSCDTVILSPTARAVRNVRNVMYLHQEGEEEEEEEEEEEDGEEIEPEHEGRKVVVFFTRNGKIIGKKDAVVPSGGFFPTIGMLSCGEKVKVDLHPLSG
Consider B4, for which the binding result in experiment [1] and in experiment [2] was “binds” in each case.

B5: SHKBP1 (other, human, UniProt Q8TBC3 2-707, looked up)
chain: AAAATAAEGVPSRGPPGEVIHLNVGGKRFSTSRQTLTWIPDSFFSSLLSGRISTLKDETGAIFIDRDPTVFAPILNFLRTKELDPRGVHGSSLLHEAQFYGLTPLVRRLQLREELDRSSCGNVLFNGYLPPPVFPVKRRNRHSLVGPQQLGGRPAPVRRSNTMPPNLGNAGLLGRMLDEKTPPSPSGQPEEPGMVRLVCGHHNWIAVAYTQFLVCYRLKEASGWQLVFSSPRLDWPIERLALTARVHGGALGEHDKMVAAATGSEILLWALQAEGGGSEIGVFHLGVPVEALFFVGNQLIATSHTGRIGVWNAVTKHWQVQEVQPITSYDAAGSFLLLGCNNGSIYYVDVQKFPLRMKDNDLLVSELYRDPAEDGVTALSVYLTPKTSDSGNWIEIAYGTSSGGVRVIVQHPETVGSGPQLFQTFTVHRSPVTKIMLSEKHLISVCADNNHVRTWSVTRFRGMISTQPGSTPLASFKILALESADGHGGCSAGNDIGPYGERDDQQVFIQKVVPSASQLFVRLSSTGQRVCSVRSVDGSPTTAFTVLECEGSRRLGSRPRRYLLTGQANGSLAMWDLTTAMDGLGQAPAGGLTEQELMEQLEHCELAPPAPSAPSWGCLPSPSPRISLTSLHSASSNTSLSGHRGSPSPPQAEARRRGGGSFVERCQELVRSGPDLRRPPTPAPWPSSGLGTPLTPPKMKLNETSF
With B5, the binding result in experiment [1] and in experiment [2] was “binds” throughout.

B6: SMG9 (other, human, UniProt Q9H0W8 2-520, looked up)
chain: SESGHSQPGLYGIERRRRWKEPGSGGPQNLSGPGGRERDYIAPWERERRDASEETSTSVMQKTPIILSKPPAERSKQPPPPTAPAAPPAPAPLEKPIVLMKPREEGKGPVAVTGASTPEGTAPPPPAAPAPPKGEKEGQRPTQPVYQIQNRGMGTAAPAAMDPVVGQAKLLPPERMKHSIKLVDDQMNWCDSAIEYLLDQTDVLVVGVLGLQGTGKSMVMSLLSANTPEEDQRTYVFRAQSAEMKERGGNQTSGIDFFITQERIVFLDTQPILSPSILDHLINNDRKLPPEYNLPHTYVEMQSLQIAAFLFTVCHVVIVVQDWFTDLSLYRFLQTAEMVKPSTPSPSHESSSSSGSDEGTEYYPHLVFLQNKARREDFCPRKLRQMHLMIDQLMAHSHLRYKGTLSMLQCNVFPGLPPDFLDSEVNLFLVPFMDSEAESENPPRAGPGSSPLFSLLPGYRGHPSFQSLVSKLRSQVMSMARPQLSHTILTEKNWFHYAARIWDGVRKSSALAEYSRLLA
On to B6, for which the binding result in experiment [1] and in experiment [2] was “binds” in each case.

B7: SYDE1 (other, human, UniProt Q6ZW31 1-735, looked up)
chain: MAEPLLRKTFSRLRGREKLPRKKSDAKERGHPAQRPEPSPPEPEPQAPEGSQAGAEGPSSPEASRSPARGAYLQSLEPSSRRWVLGGAKPAEDTSLGPGVPGTGEPAGEIWYNPIPEEDPRPPAPEPPGPQPGSAESEGLAPQGAAPASPPTKASRTKSPGPARRLSIKMKKLPELRRRLSLRGPRAGRERERAAPAGSVISRYHLDSSVGGPGPAAGPGGTRSPRAGYLSDGDSPERPAGPPSPTSFRPYEVGPAARAPPAALWGRLSLHLYGLGGLRPAPGATPRDLCCLLQVDGEARARTGPLRGGPDFLRLDHTFHLELEAARLLRALVLAWDPGVRRHRPCAQGTVLLPTVFRGCQAQQLAVRLEPQGLLYAKLTLSEQQEAPATAEPRVFGLPLPLLVERERPPGQVPLIIQKCVGQIERRGLRVVGLYRLCGSAAVKKELRDAFERDSAAVCLSEDLYPDINVITGILKDYLRELPTPLITQPLYKVVLEAMARDPPNRVPPTTEGTRGLLSCLPDVERATLTLLLDHLRLVSSFHAYNRMTPQNLAVCFGPVLLPARQAPTRPRARSSGPGLASAVDFKHHIEVLHYLLQSWPDPRLPRQSPDVAPYLRPKRQPPLHLPLADPEVVTRPRGRGGPESPPSNRYAGDWSVCGRDFLPCGRDFLSGPDYDHVTGSDSEDEDEEVGEPRVTGDFEDDFDAPFNPHLNLKDFDALILDLERELSKQINVCL
As for B7, the binding result in experiment [1] and in experiment [2] was “binds” in each case.
